Molecular target: biotinylated SARS-CoV-2 RBD (SARS-CoV-2) (UniProt P0DTC2)
Experiment: flow cytometry on antigen-coated beads

Row | Binder | EC50
1 | 12H2 (antibody, V domains shown) VH: EVQLQESGPGLVKPSQSLFLTCTVTGYSITSDYAWNWIRQFPGNKLEWMGYITYSGSTSYNPSLKSRISITRDTSKNQFFLQLNSVTTEDTATYYCARGDGYFFPLDYWGQGTTLTVSS VL: DIVMTQSPSSLSVSAGEKVTMSCKSSQSLLNSGNQKSYLAWYQQRPGQPPKLLIYGASTRESGVPDRFTGSGSGTDFTLTISSVQAEDLAVYYCQNDHSYPPTFGAGTKLELK | 0.066 nM
2 | 13I1 (antibody, V domains shown) VH: EVQLQESGPGLVKPSQSLSLTCTVTGYSITSDYAWNWIRQFPGNKLEWMGYITYSGSTSYNPSLRSRISITRDTSKNQFFLQLNSVTSEDTATYYCARGDGYYFPLDYWGQGTTLTVSS VL: DIVMTQSPSSLSVSAGEKVTMSCKSSQSLLNGGNQKSYLAWYQQKPGQPPKLLIYGASTRESGVPDRFTGSGSGTDFTLTISSVQAEDLAVYYCQNDHSYPPTFGAGTKLELK | 0.082 nM

Source: article PMC8528929
